Measurements taken from paper PMC11339278 (2024).

T1: SNX17 full length (residue 1-470) with an intramolecular decaHis tag (human, UniProt Q15036 1-470)
T1 chain: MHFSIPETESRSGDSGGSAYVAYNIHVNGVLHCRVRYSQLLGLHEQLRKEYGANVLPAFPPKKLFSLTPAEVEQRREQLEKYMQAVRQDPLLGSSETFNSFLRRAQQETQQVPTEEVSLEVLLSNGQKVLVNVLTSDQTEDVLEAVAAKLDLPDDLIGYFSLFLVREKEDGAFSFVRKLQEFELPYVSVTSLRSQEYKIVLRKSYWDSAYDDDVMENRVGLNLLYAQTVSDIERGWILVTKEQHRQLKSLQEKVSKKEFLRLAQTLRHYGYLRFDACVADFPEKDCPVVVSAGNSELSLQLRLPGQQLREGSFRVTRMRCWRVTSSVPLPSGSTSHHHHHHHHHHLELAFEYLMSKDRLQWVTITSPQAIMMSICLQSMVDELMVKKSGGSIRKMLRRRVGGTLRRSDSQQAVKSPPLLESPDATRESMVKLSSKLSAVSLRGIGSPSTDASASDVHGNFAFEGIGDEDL

T2: SNX17ΔC (residue 1-390) with an intramolecular decaHis tag (human, UniProt Q15036 1-390)
T2 chain: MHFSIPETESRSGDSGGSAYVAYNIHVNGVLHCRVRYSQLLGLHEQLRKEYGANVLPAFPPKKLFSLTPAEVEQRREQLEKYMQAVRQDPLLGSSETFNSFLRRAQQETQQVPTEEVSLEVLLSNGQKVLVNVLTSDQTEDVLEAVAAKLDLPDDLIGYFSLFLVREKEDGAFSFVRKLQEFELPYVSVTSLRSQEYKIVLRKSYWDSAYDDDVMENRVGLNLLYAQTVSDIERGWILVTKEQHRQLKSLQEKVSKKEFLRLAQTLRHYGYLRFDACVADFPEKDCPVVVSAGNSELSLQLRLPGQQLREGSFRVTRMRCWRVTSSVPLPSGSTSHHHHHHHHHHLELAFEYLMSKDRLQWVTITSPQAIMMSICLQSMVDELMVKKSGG


Key:
CCDC22 (endogenous) = assay: GFP-nanotrap pull-down, quantitative western blot; conditions: HEK293T cells, transient co-transfection; n = 3; parent: est. 1.0; read off a plot
CCDC93 (endogenous) = assay: GFP-nanotrap pull-down, quantitative western blot; conditions: HEK293T cells, transient co-transfection; n = 3; parent: est. 1.0; read off a plot
VPS29 (endogenous) = assay: GFP-nanotrap pull-down, quantitative western blot; conditions: HEK293T cells, transient co-transfection; n = 3; parent: est. 1.0; read off a plot
[1] = target: T1, SNX17 full length (residue 1-470) with …; assay: ITC
[2] = target: T2, SNX17ΔC (residue 1-390) with an …; assay: ITC
[3] = target: SNX17 full length (residue 1-470) with an intramolecular decaHis tag (human) (UniProt Q15036); assay: ITC; APP or LRP1 peptide at 250 μM injected into 20 μM SNX17 FL or SNX17ΔC; 13 x 3.22 μL; 10 °C; 500 mM NaCl, 100 mM Tris pH 8.0, 5% glycerol; single site binding model
[4] = target: SNX17ΔC (residue 1-390) with an intramolecular decaHis tag (human) (UniProt Q15036); assay: as above
[5] = target: SNX17 full length (residue 1-470) with an intramolecular decaHis tag (human) (UniProt Q15036); assay: ITC; Microcal PEAQ, 10 °C, 500 mM NaCl, 100 mM Tris pH 8.0, 5% glycerol; 250 µM APP or LRP1 peptide, or 2 mM SNX17 tail peptide, injected into 20 µM SNX17 FL or SNX17ΔC; single site binding model
[6] = target: SNX17ΔC (residue 1-390) with an intramolecular decaHis tag (human) (UniProt Q15036); assay: ITC; 2 mM SNX17 tail peptide injected into 20 μM SNX17 FL or SNX17ΔC; 13 x 3.22 μL; 10 °C; 500 mM NaCl, 100 mM Tris pH 8.0, 5% glycerol; single site binding model

Molecule	ratio to parent (CCDC22 (endogenous))	ratio to parent (CCDC93 (endogenous))	ratio to parent (VPS29 (endogenous))	Kd [1] [µM]	Kd [2] [µM]	Kd [3] [µM]	Kd [4] [µM]	fold lower affinity than for SNX17ΔC [5] [fold]	Kd [6] [µM]
VPS35L-GFP (from UniProt Q7Z3J2-1) W280A	0.75	0.73	0.62						
VPS35L-GFP (from UniProt Q7Z3J2-1) R248A	1	1.1	1.1						
NGYENPTYKFFEQM [APP cargo recognition peptide (755-768)]				14.8	4.74	16	7.03	2	
SASDVHGNFAFEGIGDEDL [synthetic peptide of the SNX17 tail (452-470)]					116				189

Next, values leading:

ratio to parent (CCDC22 (endogenous))	ratio to parent (CCDC93 (endogenous))	ratio to parent (VPS29 (endogenous))	Kd [1] [µM]	Kd [2] [µM]	Kd [3] [µM]	Kd [4] [µM]	fold lower affinity than for SNX17ΔC [5] [fold]	Kd [6] [µM]	Molecule
0.95	0.88	0.97							VPS35L-GFP (from UniProt Q7Z3J2-1) K283E
			13.6	3.64	14.3	4.6	2		VEIGNPTYKMYEGG [LRP1 cargo recognition peptide (4466-4479)]
